# Laboratory results from patent US20150374663A1 (UNIVERSITY OF ROCHESTER, published 2015).
# Ends that are not written are not given here.
# T1: TRAP deposited by osteoclasts on human cortical bone wafers (human, UniProt P13686 22-325, limits assumed)
# T1 construct: The protein is native TRAP deposited on bone, not purified; also called bone wafers decorated with TRAP; resorption pits
# T1 sequence (looked up): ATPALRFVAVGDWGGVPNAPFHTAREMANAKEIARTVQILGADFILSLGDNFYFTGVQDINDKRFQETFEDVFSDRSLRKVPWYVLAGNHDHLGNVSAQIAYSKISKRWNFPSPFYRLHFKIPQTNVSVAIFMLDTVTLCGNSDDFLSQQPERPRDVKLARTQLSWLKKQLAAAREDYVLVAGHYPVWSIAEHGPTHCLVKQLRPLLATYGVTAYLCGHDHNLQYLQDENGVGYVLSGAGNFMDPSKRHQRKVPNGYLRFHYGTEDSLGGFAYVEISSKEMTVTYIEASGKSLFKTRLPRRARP
# B1: scrambled control peptide (SCP), VPVGTLSYLKLTG (peptide)
# peptide: VPVGTLSYLKLTG-OH
# modifications: not fully specified; also: fluorescent cadaverine label in bone wafer experiment, position not given here
# notes: In the bone wafer experiment it carried a fluorescent cadaverine label; also called scrambled peptide
# B2: 10% TBP-functionalized PEG polymer (pTBP) of Table 4, M:CTA:I 300:1:0.1, Mn 40.1 kDa (other)
# peptide: TPLSYLKGLVTVG-OH
# modifications: not fully specified (N-terminus); also: copolymerized by RAFT with PEG methyl ether methacrylate (300 Da), ~9 peptides per chain, fluorescently labelled for bone-targeting studies, position not given here
# notes: Random copolymer; Footnote e says it was used for the in vitro and in vivo bone-targeting studies, where it was fluorescently labeled; also called 10% TBP-functionalized polymer
# B3: TRAP-binding peptide (TBP), TPLSYLKGLVTVG (peptide)
# peptide: TPLSYLKGLVTVG-OH
# modifications: also: fluorescent cadaverine label in bone wafer experiment, position not given here
# notes: also called TRAP peptide
# Assays:
# [1] = biological target: T1, TRAP deposited by osteoclasts on human …; test: confocal imaging of fluorescently labeled peptide incubated overnight on human cortical bone wafers
# Description: Equal concentrations of fluorescently labeled TBP and SCP are prepared in 1× phosphate-buffered saline (PBS). Bone wafers are cut from cortical bone obtained from the femur of a human donor cadaver and incubated in peptide solutions overnight, washed twice with 1×PBS, and then visualized via confocal imaging. Stacked sections are compressed into 2D images to allow for qualitative analysis as in FIG. 3A through FIG. 3D.
# [2] = biological target: T2, type V tartrate-resistant acid phosphatase (TRAP) protein, immobilised on CM5 sensor chip; test: SPR, TRAP amine-coupled to CM5 chip, initial rate analysis of sensorgrams
# Description: Surface plasmon resonance (SPR) is used to assess the affinity of peptide-functionalized polymers for TRAP. Series S Sensor CM5 Chips are functionalized with TRAP via 1-ethyl-3-(3-dimethylaminopropyl) carbodiimide (EDC)/N-hydroxysuccinimide (NHS) chemistry. Briefly, the chips, which have a carboxymethylated dextran functionality, are activated through the introduction of NHS and EDC. After activation, TRAP protein, at 30 μg/mL in sodium acetate (pH=5), is introduced to the surface. Ethanolamine-hydrochloric acid is used to quench unreacted carboxysuccinimide groups. Polymers are dissolved in running buffer of PBS with 0.005% Tween20. Polymers are analyzed in duplicate at different concentrations. Surface regeneration is achieved using 1-10 mM NaOH solutions as necessary. […] Sensorgram data (FIG. 22) are exported from the SPR evaluation software after smoothing data of injection events and analyzed. Response units (RU) are converted into concentrations for rate analysis using the equation:
# Where S is the concentration of polymer bound to the TRAP-functionalized surface and MW is the molecular weight of the polymer. The binding rates of polymers to TRAP are determined in the initial linear portion of association, within two seconds of the start of injection. […]
# [3] = biological target: T2, type V tartrate-resistant acid …; test: SPR, TRAP amine-coupled to CM5 chip, steady-state response vs concentration fit
# Description: Surface plasmon resonance (SPR) is used to assess the affinity of peptides for TRAP. Series S Sensor CM5 Chips are functionalized with TRAP via 1-ethyl-3-(3-dimethylaminopropyl) carbodiimide (EDC)/N-hydroxysuccinimide (NHS) chemistry. Briefly, the chips, which have a carboxymethylated dextran functionality, are activated through the introduction of NHS and EDC. After activation, TRAP protein, at 30 μg/mL in sodium acetate (pH=5), is introduced to the surface. Ethanolamine-hydrochloric acid is used to quench unreacted carboxysuccinimide groups. Peptides are dissolved in running buffer of PBS with 0.005% Tween20. Peptides are analyzed in duplicate at different concentrations. Surface regeneration is achieved using a combination of 1 and 2 M NaCl and 1-50 mM NaOH solutions as necessary.
# Target affinity can be determined by introducing increasing concentrations of the ligand to the surface. […] The binding response was measured and plotted against concentration (FIG. 4), allowing for a fitting of the data by a binding curve. From this fitting, values such as KD can be determined.
# [4] = biological target: T2, type V tartrate-resistant acid …; test: SPR, TRAP-functionalized surface, binding curve fit (n = 2, Ave. ± StDev)
# [5] = biological target: T2, type V tartrate-resistant acid …; test: SPR, TRAP-functionalized surface, binding curve fit
# Description: Quantitative analyses of peptide and polymer affinities were performed using SPR. […] The binding of any molecules to the surface of the sensor chips results in a change in the angle of incident light reflection, allowing highly-sensitive detection of miniscule amounts of ligand binding to the surface. Target affinity can be determined by introduction of increasing concentrations of the molecule to the surface (FIG. 38A and FIG. 38B). […] The binding response is measured and plotted against concentration, allowing for a fitting of the data by a binding curve. From this fitting, values such as the dissociation constant (KD) value can be determined. Through this technique, the affinity of peptides and peptide-functionalized polymers were analyzed.
binder,measurement,setting,value
B1,binding result,[1],no binding
B2,Kd,[2],60 µM
B3,Kd,[3],~200 µM
same,Kd,[4],795 µM
same,Kd,[5],~700 µM
